In US7534761B1, “Charged peptide-amphiphile solutions and self-assembled peptide nanofiber networks formed therefrom” (North Western University, priority 2002, dated 2009):
Square brackets hold non-standard residues; d marks the D form. Ends that are not written are not given here. * marks the point of attachment. Palmitoyl = CCCCCCCCCCCCCCCC(=O)*; pS = N[C@@H](COP(=O)(O)O)C(=O)O

Experiments:
[1] = Coassembly of negatively and positively charged peptide amphiphiles; type: physicochemical; conditions: 10 mg/mL, mixed with approximately 3 molar equivalents of SEQ ID NO:22
Source text: This example illustrates the self assembly of negatively charged peptide amphiphiles using positively charged peptide amphiphiles, coassembly, to induce nanofiber gel formation. […] Similar approaches may be applied using variations the charged molecules involved.

[2] = tested on: MC3T3-E1 mouse calvarial osteoblasts; assay: Growth and differentiation of MC3T3-E1 osteoblasts on self assembled nanofibers coated on glass; type: cell-based
Description: Cell culture preparation includes treating glass coverslips overnight in 100% ethanol. […] of SEQ ID NO:1, was spin-coated at 1500 r.p.m. for 30 seconds onto the treated glass cover slips. Samples were dried under vacuum to promote self-assembly on the glass surface. Samples were then immersed in 10% iodine for 15 minutes to cross-link the assembled PA nanofibers. Cross-linked samples were thoroughly, but gently rinsed by immersion in water 3×. Rinsed slides were dried by vacuum desiccation and placed in a 24-well tissue culture well plate. MC3T3-E1 mouse calvarial osteoblasts were plated at 10,000 cells/coverslip in 1 mL of MEM-a culture medium containing 10% fetal bovine serum, 1% penicillin/streptomycin, 30 mM β-glycerolphosphate, and […] ascorbic acid. The medium was exchanged every 3 days.

[3] = Gelation / self assembly of peptide amphiphile solutions, TEM of bulk gels; type: physicochemical
Description: Synthesis of peptide amphiphile, SEQ ID NO:1, was synthesized with standard Fmoc chemistry on an Applied Biosystems […] automated peptide synthesizer. The peptide was grown from the C terminus to N terminus with the sequence CCCCGGGSS(P)DS(P)D, SEQ ID NO:1, and the N terminus was capped with a 16 carbon fatty acid. The synthesis of the peptide amphiphile, SED ID NO:1, was verified by ESI mass spectroscopy indicating correct molecular weight. […] To confirm the formation of fibers, transmission electron microscopy (TEM) images of these bulk gels were taken and are shown in FIG. 3. Fibers on the order of 5-10 nm in diameter can be seen, as well as globular micelles ranging from 10-15 nm in diameter.

Substance | result of coassembly [1] | cell adhesion and spreading on nanofiber-coated glass slides ([2]; MC3T3-E1, 10,000 cells/coverslip, iodine cross-linked nanofibers) | osteoblastic differentiation, mineral by Von Kossa staining ([2]; MC3T3-E1, 17 days of culture) | cell layer on self assembled peptide amphiphile coated glass ([2]; MC3T3-E1, after 12 days (FIG. 4B legend)) | gelation of solution ([3]; 1% and 0.1% solutions, HCl and Ca2+ addition) | globular micelle diameter (TEM) ([3]; bulk gels) | nanofiber diameter (TEM) ([3]; bulk gels)
SEQ ID NO:25: peptide amphiphiles having an SSDSD peptide sequence; negatively charged; possibly the SEQ ID NO:1 amphiphile (also: alkyl tail) | self-supporting PA nanofiber gel | – | – | – | – | – | –
C16H31O-CCCCGGGSS(P)DS(P)D (Palmitoyl-CCCCGGGS[pS]D[pS]D; not fully specified (C-terminus); cysteine pairing not given here) [SEQ ID NO 1, peptide amphiphile: alkyl tail C16H31O, structural peptide CCCCGGG, functional peptide SS*DS*D] | – | adhering and spreading | producing significant mineral | confluent layer | found to gel | 10-15 nm | 5-10 nm
